Reference: the Human Domainome abundance scans (Beltran et al. 2025)
± gives the uncertainty stated by the source.

B1: Steroid hormone receptor ERR2, residues 100 to 176; numbered along this chain, O95718 (parent)
chain: KRLCLVCGDIASGYHYGVASCEACKAFFKRTIQGNIEYSCPATNECEITKRRRKSCQACRFMKCLKVGMLKEGVRLD

Variants of: B1
Assay: abundance fitness (aPCA) (normalised: wild type 0, dead -1); higher = more abundant; growth selection in yeast, the domain comes from the species named
Details: Homo sapiens
For KRLCLVCGDIASGYHYGVASCEACKAFFKRTIQGNIEYSCPATNECEITKGRRKSCQACRFMKCLKVGMLKEGVRLD [R51G], the abundance fitness was 0.033 ± 0.11. With KRLCLVCGDIASGYHYGVASCEACKAFFKRTIQGNIEYSCPATNECEITKKRRKSCQACRFMKCLKVGMLKEGVRLD [R51K] the abundance fitness was -0.002 ± 0.1. Work on KRLCLVCGDIASGYHYGVASCEACKAFFKRTIQGNIEYSCPATNECEITKYRRKSCQACRFMKCLKVGMLKEGVRLD [R51Y] yielded an abundance fitness of -0.384 ± 0.13. In the case of KRLCLVCGDIASGYHYGVASCEACKAFFKRTIQGNIEYSCPATNECEITKNRRKSCQACRFMKCLKVGMLKEGVRLD [R51N], the abundance fitness is reported as -0.072 ± 0.087. KRLCLVCGDIASGYHYGVASCEACKAFFKRTIQGNIEYSCPATNECEITKFRRKSCQACRFMKCLKVGMLKEGVRLD [R51F] gave an abundance fitness of -0.161 ± 0.096. KRLCLVCGDIASGYHYGVASCEACKAFFKRTIQGNIEYSCPATNECEITKERRKSCQACRFMKCLKVGMLKEGVRLD [R51E] gave an abundance fitness of 0.152 ± 0.12. Variant KRLCLVCGDIASGYHYGVASCEACKAFFKRTIQGNIEYSCPATNECEITKIRRKSCQACRFMKCLKVGMLKEGVRLD [R51I] has an abundance fitness of -0.269 ± 0.11. KRLCLVCGDIASGYHYGVASCEACKAFFKRTIQGNIEYSCPATNECEITKQRRKSCQACRFMKCLKVGMLKEGVRLD [R51Q] showed an abundance fitness of 0.119 ± 0.1. KRLCLVCGDIASGYHYGVASCEACKAFFKRTIQGNIEYSCPATNECEITKLRRKSCQACRFMKCLKVGMLKEGVRLD [R51L] showed an abundance fitness of -0.097 ± 0.069. With KRLCLVCGDIASGYHYGVASCEACKAFFKRTIQGNIEYSCPATNECEITKHRRKSCQACRFMKCLKVGMLKEGVRLD [R51H] the abundance fitness was -0.08 ± 0.084. With KRLCLVCGDIASGYHYGVASCEACKAFFKRTIQGNIEYSCPATNECEITKSRRKSCQACRFMKCLKVGMLKEGVRLD [R51S] the abundance fitness was -0.14 ± 0.066. Variant KRLCLVCGDIASGYHYGVASCEACKAFFKRTIQGNIEYSCPATNECEITKTRRKSCQACRFMKCLKVGMLKEGVRLD [R51T] has an abundance fitness of -0.04 ± 0.064. Work on KRLCLVCGDIASGYHYGVASCEACKAFFKRTIQGNIEYSCPATNECEITKMRRKSCQACRFMKCLKVGMLKEGVRLD [R51M] yielded an abundance fitness of 0.173 ± 0.1. In the case of KRLCLVCGDIASGYHYGVASCEACKAFFKRTIQGNIEYSCPATNECEITKRRRKACQACRFMKCLKVGMLKEGVRLD [S55A], the abundance fitness is reported as 0.278 ± 0.044. Work on KRLCLVCGDIASGYHYGVASCEACKAFFKRTIQGNIEYSCPATNECEITKRRRKICQACRFMKCLKVGMLKEGVRLD [S55I] yielded an abundance fitness of 0.344 ± 0.09. KRLCLVCGDIASGYHYGVASCEACKAFFKRTIQGNIEYSCPATNECEITKRRRKHCQACRFMKCLKVGMLKEGVRLD [S55H] gave an abundance fitness of 0.351 ± 0.094. KRLCLVCGDIASGYHYGVASCEACKAFFKRTIQGNIEYSCPATNECEITKRRRKCCQACRFMKCLKVGMLKEGVRLD [S55C] gave an abundance fitness of 0.393 ± 0.063. For KRLCLVCGDIASGYHYGVASCEACKAFFKRTIQGNIEYSCPATNECEITKRRRKGCQACRFMKCLKVGMLKEGVRLD [S55G], the abundance fitness was 0.336 ± 0.039. In the case of KRLCLVCGDIASGYHYGVASCEACKAFFKRTIQGNIEYSCPATNECEITKRRRKDCQACRFMKCLKVGMLKEGVRLD [S55D], the abundance fitness is reported as 0.318 ± 0.071. KRLCLVCGDIASGYHYGVASCEACKAFFKRTIQGNIEYSCPATNECEITKRRAKSCQACRFMKCLKVGMLKEGVRLD [R53A] gave an abundance fitness of 0.005 ± 0.051. KRLCLVCGDIASGYHYGVASCEACKAFFKRTIQGNIEYSCPATNECEITKRRCKSCQACRFMKCLKVGMLKEGVRLD [R53C] showed an abundance fitness of -0.103 ± 0.08. For KRLCLVCGDIASGYHYGVASCEACKAFFKRTIQGNIEYSCPATNECEITKRRMKSCQACRFMKCLKVGMLKEGVRLD [R53M], the abundance fitness was 0.107 ± 0.082. Work on KRLCLVCGDIASGYHYGVASCEACKAFFKRTIQGNIEYSCPATNECEITKRRNKSCQACRFMKCLKVGMLKEGVRLD [R53N] yielded an abundance fitness of 0.027 ± 0.093. Variant KRLCLVCGDIASGYHYGVASCEACKAFFKRTIQGNIEYSCPATNECEITKRRWKSCQACRFMKCLKVGMLKEGVRLD [R53W] has an abundance fitness of -0.084 ± 0.06. KRLCLVCGDIASGYHYGVASCEACKAFFKRTIQGNIEYSCPATNECEITKRRSKSCQACRFMKCLKVGMLKEGVRLD [R53S] gave an abundance fitness of -0.114 ± 0.058. KRLCLVCGDIASGYHYGVASCEACKAFFKRTIQGNIEYSCPATNECEITKRRGKSCQACRFMKCLKVGMLKEGVRLD [R53G] gave an abundance fitness of 0.049 ± 0.043. With KRLCLVCGDIASGYHYGVASCEACKAFFKRTIQGNIEYSCPATNECEITKRRTKSCQACRFMKCLKVGMLKEGVRLD [R53T] the abundance fitness was 0.063 ± 0.065. Variant KRLCLVCGDIASGYHYGVASCEACKAFFKRTIQGNIEYSCPATNECEITKRRFKSCQACRFMKCLKVGMLKEGVRLD [R53F] has an abundance fitness of 0.065 ± 0.08. KRLCLVCGDIASGYHYGVASCEACKAFFKRTIQGNIEYSCPATNECEITKRRPKSCQACRFMKCLKVGMLKEGVRLD [R53P] showed an abundance fitness of -0.069 ± 0.074. KRLCLVCGDIASGYHYGVASCEACKAFFKRTIQGNIEYSCPATNECEITKRREKSCQACRFMKCLKVGMLKEGVRLD [R53E] showed an abundance fitness of 0.073 ± 0.061. In the case of KRLCLVCGDIASGYHYGVASCEACKAFFKRTIQGNIEYSCPATNECEITKRRQKSCQACRFMKCLKVGMLKEGVRLD [R53Q], the abundance fitness is reported as 0.096 ± 0.066. Variant KRLCLVCGDIASGYHYGVASCEACKAFFKRTIQGNIEYSCPATNECEITKRRKKSCQACRFMKCLKVGMLKEGVRLD [R53K] has an abundance fitness of 0.015 ± 0.078. KRLCLVCGDIASGYHYGVASCEACKAFFKRTIQGNIEYSCPATNECEITKRRVKSCQACRFMKCLKVGMLKEGVRLD [R53V] gave an abundance fitness of -0.008 ± 0.054. Work on KRLCLVCGDIASGYHYGVASCEACKAFFKRTIQGNIEYSCPATNECEITKRRLKSCQACRFMKCLKVGMLKEGVRLD [R53L] yielded an abundance fitness of 0.074 ± 0.057. In the case of KRLCLVCGDIASGYHYGVASCEACKAFFKRTIQGNIEYSCPATNECEITKRRDKSCQACRFMKCLKVGMLKEGVRLD [R53D], the abundance fitness is reported as 0.026 ± 0.093. With KRLCLVCGDIASGYHYGVASCEACKAFFKRTIQGNIEYSCPATNECEITKRRYKSCQACRFMKCLKVGMLKEGVRLD [R53Y] the abundance fitness was -0.14 ± 0.13.
